According to patent publication US8357523B2, “Beta-glucosidase variant enzymes and related polynucleotides” (Codexis, Inc., priority 2009, dated 2013):
Substitutions are numbered along the chain they refer to.

B1: 184 (protein)
chain: STAIAQEGAAPAAILHPEKWPRPATQRLIDPAVEKRVDALLKQLSVEEKVGQVIQGDIGTITPEDLRKYPLGSILAGGDSGPNGDDRAPPKEWLDLADAFYRVSLEKRPGHTPIPVLFGIDAVHGHGKIGSATIFPHNIALGATRSPELLRRIGEVTAQEMAATGIDWTFAPALSVVRDDRWGRTYEGFSEDPEIVAAYSPAIVEGVQGKYGSKDFMAVGRIVASAKHFLADGGTDQGRDQGDARISEDELIRIHNAGYPPAIDAGVLTVMASFSSWQGVKHHGHKQLLTDVLKGQMGFNGFIVGDWNAHDQVPGCTKFNCPTSLIAGLDMYMAADSWKQLYENTLAQVKDGTIPMARLDDAVRRILRVKVLAGLFEKPAPKDRPGLPGLETLGSPEHRAVGREAVRKSLVLLKNDKGTLPLSPKARVLVAGDGADNIGKQSGGWTISWQGTGNRNDEFPGATSILGGIRDAVADAGGSVEFDVAGQYKTKPDVAIVVFGEEPYAEFQGDVETLEYQPDQKQDLALLKKLKDQGIPVVAVFLSGRPMWVNPELNASDAFVAAWLPGTEGGGVADVLFTDKAGKVQHDFAGKLSYSWPRTAAQTTVNRGDADYNPLFAYGYGLTYKDKSKVGTLPEESGVPAEARQNAGIYFRAGALRLPGRFL
B2: 178 (protein)
chain: STAIAQEGAAPAAILHPEKWPRPATQRLIDPAVEKRVDALLKQLSVEEKVGQVIQGDIGTITPEDLRKYPLGSILAGGNSGPNGDDRAPPKEWLDLADAFYRVSLEKRPGHTPIPVLFGIDAVHGHGNIGSATIFPHNIALGATRDPELLRRIGEVTAVEMAATGIDWTFAPALSVVRDDRWGRTYEGFSEDPEIVASYSAAIVEGVQGKYGSKDFMAPGRAVACAKHFLADGGTDQGRDQGDARISEDELIRIHNAGYPPAIDAGVLTVMASFSSWQGIKHHGHKQLLTDVLKGQMGFNGFIVGDWNAHDQVPGCTKFNCPTSLIAGLDMYMAADSWKQLYENTLAQVKDGTIPMARLDDAVRRILRVKVLTGLFEKPAPKDRPGLPGLETLGSPEHRAVGREAVRKSLVLLKNDKGTLPLSPKARVLVAGDGADNIGKQSGGWTISWQGTGNRNDEFPGATSILGGIRDAVADAGGSVEFDVAGQYKTKPDVAIVVFGEEPYAEFQGDVETLEYQPDQKQDLALLKKLKDQGIPVVAVFLSGRPMWVNPELNASDAFVAAWLPGTEGGGVADVLFTDKAGKVQHDFAGKLSYSWPRTAAQTTVNRGDADYNPLFAYGYGLTYKDKSKVGTLPEESGVPAEARQNAGIYFRAGALRLPGRFL
B3: 81 (protein)
chain: B2 chain with E18R, P23L, E34K, E47K, P70S, S198A, Y211F, A222I, T373A
B4: 188 (protein)
chain: B1 chain with Q159V, A162T, A198S, P201A, V219P, V280I
B5: 185 (protein)
chain: B2 chain with V159Q, T373A, P381S
B6: 190 (protein)
chain: B2 chain with S198A, Y211F, A222I, C225S, F274Q, T373A
B7: 80 (protein)
chain: B2 chain with N128K, A162T, S198A, Y211F, A222I, T373A
B8: 191 (protein)
chain: B2 chain with S198A, Y211F, A222I, C225S, F274A, T373A, D436N
B9: 180 (protein)
chain: B1 chain with Q159V, P201A, Y211F, V219P, S225C, V280I, A655T
B10: 181 (protein)
chain: B2 chain with N128K, A143M, V159E, S198A, A222I, T373A
B11: 183 (protein)
chain: B2 chain with N79D, D146S, A162T, D311G, N320K, R358H, T373A, F662L
B12: 179 (protein)
chain: B2 chain with N79D, N128K, A173C, A222I, C225S, T373A
B13: 186 (protein)
chain: B1 chain with I134N, S146D, P201A, Y211F, V219P, S225C, V280I
B14: 189 (protein)
chain: B2 chain with S198A, Y211F, A222I, C225S, F274K, T373A
B15: 182 (protein)
chain: B1 chain with I114T, S146D, A173C, A198S, P201A, V280I

Test: High throughput cellobiose assay: fold improvement in cellobiase activity of CelA variants over a control enzyme (Tables 2A-2D, 3, 5, 6, 7)
Assay type: biochemical
Conditions: 3.3 g/l cellobiose, 55° C. and pH 6.0

Molecule	Fold improvement over Control Variant No. 5 from Table 2A
B1	+++ (+++ = 6 to 13 fold improvement over control Variant No. 2)
B2	+++ (+++ = 6 to 13 fold improvement over control Variant No. 2)
B3	++ (++ = 1.1 to 6 fold improvement over control Variant No. 2)
B4	++ (++ = 1.1 to 6 fold improvement over control Variant No. 2)
B5	++ (++ = 1.1 to 6 fold improvement over control Variant No. 2)
B6	++ (++ = 1.1 to 6 fold improvement over control Variant No. 2)
B7	+++ (+++ = 6 to 13 fold improvement over control Variant No. 2)
B8	++ (++ = 1.1 to 6 fold improvement over control Variant No. 2)
B9	+++ (+++ = 6 to 13 fold improvement over control Variant No. 2)
B10	+++ (+++ = 6 to 13 fold improvement over control Variant No. 2)
B11	++ (++ = 1.1 to 6 fold improvement over control Variant No. 2)
B12	+++ (+++ = 6 to 13 fold improvement over control Variant No. 2)
B13	+++ (+++ = 6 to 13 fold improvement over control Variant No. 2)
B14	++ (++ = 1.1 to 6 fold improvement over control Variant No. 2)
B15	++ (++ = 1.1 to 6 fold improvement over control Variant No. 2)
